In patent publication US20230184787:

Target: T1, full-length human calprotectin (heterodimer of S100A9 and S100A8), P06702
T1 chain 1: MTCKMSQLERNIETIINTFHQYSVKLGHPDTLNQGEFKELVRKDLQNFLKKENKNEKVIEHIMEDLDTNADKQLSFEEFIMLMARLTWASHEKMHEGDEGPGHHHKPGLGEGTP
T1 chain 2: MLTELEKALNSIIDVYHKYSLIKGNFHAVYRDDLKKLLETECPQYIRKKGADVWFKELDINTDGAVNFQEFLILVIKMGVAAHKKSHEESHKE

B1: human neutrophil elastase (protein)
chain: IVGGRRARPHAWPFMVSLQLRGGHFCGATLIAPNFVMSAAHCVANVNVRAVRVVLGAHNLSRREPTRQVFAVQRIFENGYDPVNLLNDIVILQLNGSATINANVQVAQLPAQGRRLGNGVQCLAMGWGLLGRNRGIASVLQELNVTVVTSLCRRSNVCTLVRGRQAGVCFGDSGSPLVCNGLIHGIASFVRGGCASGLYPDAFAPVAQFVNWIDSIIQ
- calprotectin fragments identified by non-targeted mass spectrometry after in vitro cleavage: several neo-epitope containing calprotectin fragments were generated by HNE, from both the S100A9 and S100A8 proteins
